# Data reported in the Human Domainome abundance scans (Beltran et al. 2025).
# ± gives the uncertainty stated by the source.
# B1: SWI/SNF-related matrix-associated actin-dependent regulator of chromatin subfamily B member 1, residues 181 to 248; numbered along this chain, Q12824 (parent)
# chain: SQPEVLVPIRLDMEIDGQKLRDAFTWNMNEKLMTPEMFSEILCDDLDLNPLTFVPAIASAIRQQIESY
# Variants of: B1
# Test: abundance fitness (aPCA) (normalised: wild type 0, dead -1); higher = more abundant; growth selection in yeast, the domain comes from the species named
# Settings: Homo sapiens
row,Variant,abundance fitness
1,E66V,-0.142 ± 0.099
2,P3V,-0.146 ± 0.045
3,P3H,-0.097 ± 0.15
4,P3W,-0.186 ± 0.073
5,P3R,0.161 ± 0.038
6,P3Y,0.002 ± 0.092
7,P3S,0.129 ± 0.052
8,P3A,0.02 ± 0.067
9,P3D,0.266 ± 0.074
10,L46P,-1.08 ± 0.23
11,L46M,0.05 ± 0.21
12,L46V,-0.746 ± 0.12
13,L46F,-0.091 ± 0.09
14,L46N,-0.271 ± 0.17
15,L46C,-0.231 ± 0.2
16,L46K,0.211 ± 0.075
17,L46H,0.318 ± 0.14
18,L46E,-0.204 ± 0.13
19,L46G,-0.37 ± 0.12
20,L46R,0.161 ± 0.046
21,P50M,-1.03 ± 0.43
22,P50I,-1 ± 0.35
23,P50V,-0.772 ± 0.085
24,P50L,-0.933 ± 0.17

row,Variant,abundance fitness
1,P50D,-0.986 ± 0.2
2,P50Y,-0.714 ± 0.15
3,P50H,-0.039 ± 0.082
4,P50R,0.021 ± 0.045
5,P50C,-0.751 ± 0.49
6,P50A,-0.292 ± 0.06
7,N27P,-0.512 ± 0.15
8,N27T,-0.552 ± 0.3
9,N27E,-0.822 ± 0.45
10,N27R,-0.684 ± 0.14
11,R21K,0.011 ± 0.13
12,R21C,0.096 ± 0.066
13,R21L,-0.204 ± 0.062
14,R21N,0.098 ± 0.072
15,R21W,-0.368 ± 0.13
16,R21H,0.164 ± 0.076
17,R21D,0.133 ± 0.13
18,I65P,-0.689 ± 0.26
19,I65E,-0.994 ± 0.41
20,I65C,0.036 ± 0.24
21,I15M,-0.667 ± 0.24
22,I15E,-0.765 ± 0.18
23,I15L,0.01 ± 0.12
24,I15V,-0.516 ± 0.088

row,Variant,abundance fitness
1,I15G,-0.97 ± 0.25
2,I15H,-0.625 ± 0.28
3,I15A,-0.917 ± 0.23
4,L32F,0.09 ± 0.079
5,L32S,0.059 ± 0.036
6,L32V,0.068 ± 0.031
7,L32E,0.207 ± 0.045
8,L32C,-0.075 ± 0.075
9,L32Q,0.099 ± 0.047
10,L32Y,0.061 ± 0.058
11,I9D,-0.74 ± 0.2
12,I9P,-0.094 ± 0.43
13,I9G,-0.762 ± 0.18
14,I9T,-0.701 ± 0.21
15,I9S,-1.05 ± 0.32
16,I9L,-0.989 ± 0.28
17,I9E,-0.904 ± 0.44
18,C43G,-0.739 ± 0.12
19,C43R,-0.831 ± 0.1
20,C43M,-0.686 ± 0.15
21,C43K,-0.613 ± 0.11
22,E30W,0.023 ± 0.32
23,K19C,0.128 ± 0.11
24,Y68T,-0.444 ± 0.15

row,Variant,abundance fitness
1,Y68S,-0.427 ± 0.069
2,Y68A,-0.127 ± 0.051
3,Y68F,-0.183 ± 0.18
4,Y68M,-0.641 ± 0.29
5,Y68G,-0.661 ± 0.13
6,Y68K,-0.47 ± 0.17
7,R62L,-0.553 ± 0.075
8,R62K,-0.043 ± 0.047
9,R62M,-0.619 ± 0.11
10,R62P,-0.718 ± 0.2
11,R62H,-0.239 ± 0.14
12,R62N,-0.256 ± 0.083
13,R62I,-0.824 ± 0.21
14,S1R,-0.307 ± 0.09
15,S1K,0.167 ± 0.077
16,S1L,-0.021 ± 0.049
17,S1F,-0.132 ± 0.13
18,S1A,-0.151 ± 0.074
19,Q2F,0.392 ± 0.24
20,Q64P,-0.878 ± 0.12
21,Q64L,-0.52 ± 0.056
22,Q64E,-0.338 ± 0.068
23,Q64M,-0.904 ± 0.18
24,Q64Y,-0.795 ± 0.45

row,Variant,abundance fitness
1,Q64T,-0.658 ± 0.086
2,Q64S,-0.563 ± 0.052
3,T25W,-0.228 ± 0.05
4,T25Q,-0.121 ± 0.046
5,T25V,-0.048 ± 0.036
6,D47H,-0.018 ± 0.053
7,D47T,-0.37 ± 0.059
8,D47S,-0.101 ± 0.048
9,V54I,-0.241 ± 0.077
10,V54A,-0.119 ± 0.44
11,V54F,-0.739 ± 0.32
12,V54L,-0.684 ± 0.21
13,D16Q,-0.168 ± 0.062
14,D16E,-0.042 ± 0.06
15,D16S,-0.39 ± 0.048
16,D16R,-0.415 ± 0.044
17,D16K,-0.498 ± 0.081
18,D16Y,-0.546 ± 0.086
19,D16W,-0.822 ± 0.15
20,D16H,-0.247 ± 0.057
21,D16L,-0.5 ± 0.055
22,D12V,-0.646 ± 0.41
23,D12F,-0.73 ± 0.24
24,E4V,0.047 ± 0.12

row,Variant,abundance fitness
1,E4R,-0.234 ± 0.041
2,E4T,-0.281 ± 0.11
3,E4L,-0.292 ± 0.056
4,E4C,-0.32 ± 0.063
5,F24G,-0.884 ± 0.092
6,F24P,-0.866 ± 0.18
7,F24M,-0.71 ± 0.11
8,F24A,-0.974 ± 0.099
9,F24V,-0.331 ± 0.051
10,F24S,-0.822 ± 0.098
11,F24W,-0.293 ± 0.063
12,F24N,-0.964 ± 0.2
13,N29Q,-0.476 ± 0.45
14,N29G,-0.244 ± 0.087
15,N29L,-0.939 ± 0.25
16,N29F,-0.736 ± 0.28
17,G17K,-0.365 ± 0.099
18,G17T,-0.896 ± 0.24
19,G17V,-1 ± 0.13
20,G17H,-0.66 ± 0.23
21,G17A,-0.867 ± 0.13
22,P8A,-0.676 ± 0.074
23,P8F,-0.506 ± 0.089
24,P8C,-0.736 ± 0.13

row,Variant,abundance fitness
1,P8R,-0.352 ± 0.037
2,P8H,-0.641 ± 0.14
3,P8L,-0.512 ± 0.043
4,P8T,-0.177 ± 0.048
5,P8N,-0.286 ± 0.14
6,P8E,-0.197 ± 0.089
7,R10S,-0.444 ± 0.18
8,R10N,-0.03 ± 0.31
9,M33L,0.01 ± 0.039
10,M33S,-0.743 ± 0.14
11,M33V,-0.248 ± 0.052
12,M33W,-0.488 ± 0.068
13,M33T,-0.279 ± 0.21
14,M33K,-0.325 ± 0.091
15,M33A,-0.563 ± 0.091
16,M33P,-0.113 ± 0.15
17,M33Q,-0.191 ± 0.076
18,S67I,-0.078 ± 0.28
19,S67P,-0.055 ± 0.045
20,S67H,-0.089 ± 0.057
21,S67D,-0.055 ± 0.12
22,S67K,-0.2 ± 0.14
23,S67F,-0.06 ± 0.066
